The text below walks through data of US20070032406A1 (UNIVERSITY OF ROCHESTER, published 2007).

The target of assay [1] is NgR2 (full-length, N-terminally myc-tagged rat NgR2) (rat) (UniProt Q80WD1). Nature of the assay: MAG-Fc binding to NgR2 expressing COS-7 cells.
Assay [2] shares this target. Kind of assay: Scatchard plot analysis, MAG-Fc on NgR2 expressing COS-7 cells.
The target is the same in assay [3]. Kind of assay: MAG-Fc binding to transfected COS-7 cells, direct comparison with NgR.
For assay [4] the target is unchanged. Nature of the assay: estimated from the 5 fold comparison on COS-7 cells and the literature Kd of MAG-Fc/NgR.
Assay [5] deals with T1, NgR1 (Nogo receptor; full-length, N-terminally myc-tagged rat NgR) (rat, UniProt Q99M75 26-447).
T1 construct: GPI-linked; Expressed on COS-7 cells, in HEK293T cells (co-IP) and by adenovirus in rat DRG neurons; the tag is stated only for the COS-7 construct; also called myc-NgR[Pro26-Cys473]
T1 sequence: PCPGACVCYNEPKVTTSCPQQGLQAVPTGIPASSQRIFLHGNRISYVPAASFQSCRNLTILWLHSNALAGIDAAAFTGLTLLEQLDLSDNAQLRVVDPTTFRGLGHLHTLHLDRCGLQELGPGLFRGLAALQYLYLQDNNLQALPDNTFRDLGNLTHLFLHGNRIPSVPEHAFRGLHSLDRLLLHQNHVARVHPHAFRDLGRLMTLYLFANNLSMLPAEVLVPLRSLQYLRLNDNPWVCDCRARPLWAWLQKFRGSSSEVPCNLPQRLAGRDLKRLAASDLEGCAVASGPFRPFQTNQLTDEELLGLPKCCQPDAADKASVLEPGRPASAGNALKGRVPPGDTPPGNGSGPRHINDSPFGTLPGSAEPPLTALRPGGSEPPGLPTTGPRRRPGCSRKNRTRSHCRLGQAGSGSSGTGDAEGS
Nature of the assay: AP-ligand binding to transfected COS-7 cells.

Assay [6] concerns the target T2, NgR2 (full-length, N-terminally myc-tagged rat NgR2) (rat, UniProt Q80WD1 30-390).
T2 construct: also called myc-NgR2[Ser30-Leu420]
T2 sequence: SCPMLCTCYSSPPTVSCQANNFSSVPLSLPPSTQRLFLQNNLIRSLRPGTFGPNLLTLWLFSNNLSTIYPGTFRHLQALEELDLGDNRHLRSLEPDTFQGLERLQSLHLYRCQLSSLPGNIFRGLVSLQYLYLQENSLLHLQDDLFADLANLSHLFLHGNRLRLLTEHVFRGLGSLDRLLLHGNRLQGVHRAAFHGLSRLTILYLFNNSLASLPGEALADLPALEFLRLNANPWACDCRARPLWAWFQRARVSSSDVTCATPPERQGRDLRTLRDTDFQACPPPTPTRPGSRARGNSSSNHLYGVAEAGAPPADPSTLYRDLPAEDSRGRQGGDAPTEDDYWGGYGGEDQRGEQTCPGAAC
Kind of assay: AP-ligand binding to transfected COS-7 cells.

For assay [7], the target named is T3, NgR3 (full-length, N-terminally myc-tagged rat NgR3) (rat, UniProt Q80WD0 24-424).
T3 construct: also called myc-NgR3[Gly24-Arg445]
T3 sequence: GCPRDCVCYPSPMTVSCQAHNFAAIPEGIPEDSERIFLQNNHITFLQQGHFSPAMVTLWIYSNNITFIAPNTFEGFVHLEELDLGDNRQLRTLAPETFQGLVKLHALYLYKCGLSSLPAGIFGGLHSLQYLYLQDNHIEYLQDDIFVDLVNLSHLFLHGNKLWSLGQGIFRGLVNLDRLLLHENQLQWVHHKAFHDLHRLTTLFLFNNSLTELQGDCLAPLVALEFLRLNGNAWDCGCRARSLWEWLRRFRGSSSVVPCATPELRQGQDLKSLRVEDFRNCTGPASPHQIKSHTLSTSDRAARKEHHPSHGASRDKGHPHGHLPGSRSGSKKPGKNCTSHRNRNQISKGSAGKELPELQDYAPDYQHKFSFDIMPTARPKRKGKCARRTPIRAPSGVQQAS
Nature of the assay: AP-ligand binding to transfected COS-7 cells.

In assay [1], “MAG-Fc (MAG ectodomain fused to the Fc fragment of human immunoglobulin) (Fc fusion)” yielded a concentration at which binding saturates of 5 to 10 nM. Also, the Kd was 2 nM in assay [2] and 1 to 2 nM in assay [4]. The same molecule returned a fold tighter binding than to NgR in assay [3] of 5 fold.

B1: AP-sNgR^C-term (LRRCT domain together with the unique domain of NgR, residues 261-445, AP fusion) (receptor)
chain: PWVCDCRARPLWAWLQKFRGSSSEVPCNLPQRLAGRDLKRLAASDLEGCAVASGPFRPFQTNQLTDEELLGLPKCCQPDAADKASVLEPGRPASAGNALKGRVPPGDTPPGNGSGPRHINDSPFGTLPGSAEPPLTALRPGGSEPPGLPTTGPRRRPGCSRKNRTRSHCRLGQAGSGSSGTGDAE
notes: Soluble, made in HEK293T cells; also called AP-sNgRCTu [Pro261-Glu445]; AP-NgR^C-term; not shown: alkaline phosphatase (AP) tag
Take B1: the binding result in assay [5], in assay [6] and in assay [7] was “no binding” throughout.

As usually defined, the Kd is the free concentration of one partner at which half of the binding sites on the other are occupied at equilibrium, for simple one-to-one binding.
